Test results taken from US20120231065A1.

Molecular target: GCSF receptor (rat, endogenous, on neurons / in cortex tissue) (rat) (UniProt D4A3R0)
Test: cell-based or functional assay

Sequence of UniProt D4A3R0 (D4A3R0 entry or part of it limits assumed, form in doubt): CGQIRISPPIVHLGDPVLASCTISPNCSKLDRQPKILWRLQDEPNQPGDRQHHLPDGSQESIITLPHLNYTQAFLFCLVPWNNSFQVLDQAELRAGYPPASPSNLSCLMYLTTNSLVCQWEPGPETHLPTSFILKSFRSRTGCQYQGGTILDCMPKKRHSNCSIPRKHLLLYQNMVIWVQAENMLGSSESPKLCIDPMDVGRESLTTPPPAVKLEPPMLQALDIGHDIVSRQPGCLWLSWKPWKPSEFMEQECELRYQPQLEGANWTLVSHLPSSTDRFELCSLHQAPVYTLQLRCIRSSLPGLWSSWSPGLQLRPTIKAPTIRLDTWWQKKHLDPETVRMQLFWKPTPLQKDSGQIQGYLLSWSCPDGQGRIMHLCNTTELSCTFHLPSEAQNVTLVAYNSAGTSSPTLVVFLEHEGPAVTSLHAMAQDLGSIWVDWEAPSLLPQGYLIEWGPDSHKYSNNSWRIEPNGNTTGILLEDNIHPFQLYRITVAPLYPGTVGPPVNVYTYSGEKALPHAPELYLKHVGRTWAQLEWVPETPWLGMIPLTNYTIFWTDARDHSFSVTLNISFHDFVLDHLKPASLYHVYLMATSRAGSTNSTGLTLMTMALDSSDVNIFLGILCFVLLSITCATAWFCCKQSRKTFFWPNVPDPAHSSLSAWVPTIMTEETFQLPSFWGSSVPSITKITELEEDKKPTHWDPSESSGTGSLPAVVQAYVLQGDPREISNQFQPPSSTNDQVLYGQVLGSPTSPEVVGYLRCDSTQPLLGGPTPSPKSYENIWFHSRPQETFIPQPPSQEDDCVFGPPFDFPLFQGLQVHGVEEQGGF

“recombinant human GCSF, Neupogen (Amgen) (from UniProt P09919 31-207) (ligand)” showed an STAT3 nuclear translocation in neurons of the penumbra, percent of STAT3 positive neurons from all neurons (GCSF treated rats versus untreated controls) (percent of STAT3 positive neurons) of 34.4.
